What was measured:
[1] = system: GFP-14-3-3β and its binding proteins; test: GFP-14-3-3β co-IP with LC-MS/MS label-free quantification, untreated versus PP1c-treated; set-up: species or system human; conditions: label-free quantification, 3 replicates each
[2] = system: GFP-14-3-3β; test: GFP-14-3-3β co-IP with LC-MS/MS, untreated GFP-14-3-3β versus GFP control (14-3-3 interactome); assay type: binding, human; conditions: label-free quantification, 3 replicates each
[3] = GFP-14-3-3β co-IP LC-MS/MS, PP1 vs untreated, student's t-test
[4] = GFP-14-3-3β co-IP LC-MS/MS, untreated vs GFP, student's t-test

Difference (log2), PP1 vs untreated [1, 3] [log2]	Difference (log2), PP1 vs untreated ([1]; log2 difference, pairwise comparison PP1 vs untreated)	Molecule	Difference (log2), untreated vs GFP [2, 4] [log2]	Difference (log2), untreated vs GFP ([2]; log2 difference, pairwise comparison untreated vs GFP)
-0.5044		HNRNPH1 (protein, UniProt P31943 1-449, looked up) Heterogeneous nuclear …: MMLGTEGGEGFVVKVRGLPWSCSADEVQRFFSDCKIQNGAQGIRFIYTREGRPSGEAFVELESEDEVKLALKKDRETMGHRYVEVFKSNNVEMDWVLKHTGPNSPDTANDGFVRLRGLPFGCSKEEIVQFFSGLEIVPNGITLPVDFQGRSTGEAFVQFASQEIAEKALKKHKERIGHRYIEIFKSSRAEVRTHYDPPRKLMAMQRPGPYDRPGAGRGYNSIGRGAGFERMRRGAYGGGYGGYDDYNGYNDGYGFGSDRFGRDLNYCFSGMSDHRYGDGGSTFQSTTGHCVHMRGLPYRATENDIYNFFSPLNPVRVHIEIGPDGRVTGEADVEFATHEDAVAAMSKDKANMQHRYVELFLNSTAGASGGAYEHRYVELFLNSTAGASGGAYGSQMMGGMGLSNQSSYGGPASQQLSGGYGGGYGGQSSMSGYDQVLQENSSDFQSNIA	0.1701	
-0.4623		LMNA (protein, UniProt P02545 1-661, looked up) Prelamin-A/C: METPSQRRATRSGAQASSTPLSPTRITRLQEKEDLQELNDRLAVYIDRVRSLETENAGLRLRITESEEVVSREVSGIKAAYEAELGDARKTLDSVAKERARLQLELSKVREEFKELKARNTKKEGDLIAAQARLKDLEALLNSKEAALSTALSEKRTLEGELHDLRGQVAKLEAALGEAKKQLQDEMLRRVDAENRLQTMKEELDFQKNIYSEELRETKRRHETRLVEIDNGKQREFESRLADALQELRAQHEDQVEQYKKELEKTYSAKLDNARQSAERNSNLVGAAHEELQQSRIRIDSLSAQLSQLQKQLAAKEAKLRDLEDSLARERDTSRRLLAEKEREMAEMRARMQQQLDEYQELLDIKLALDMEIHAYRKLLEGEEERLRLSPSPTSQRSRGRASSHSSQTQGGGSVTKKRKLESTESRSSFSQHARTSGRVAVEEVDEEGKFVRLRNKSNEDQSMGNWQIKRQNGDDPLLTYRFPPKFTLKAGQVVTIWAAGAGATHSPPTDLVWKAQNTWGCGNSLRTALINSTGEEVAMRKLVRSVTVVEDDEDEDGDDLLHHHHGSHCSSSGDPAEYNLRSRTVLCGTCGQPADKASASGSGAQVGGPISSGSSASSVTVTRSYRSVGGSGGGSFGDNLVTRSYLLGNSSPRTQSPQNC	-0.3549	
-0.3964		IGHMBP2 (protein, UniProt P38935 2-993, looked up) DNA-binding protein SMUBP-2: ASAAVESFVTKQLDLLELERDAEVEERRSWQENISLKELQSRGVCLLKLQVSSQRTGLYGRLLVTFEPRRYGSAAALPSNSFTSGDIVGLYDAANEGSQLATGILTRVTQKSVTVAFDESHDFQLSLDRENSYRLLKLANDVTYRRLKKALIALKKYHSGPASSLIEVLFGRSAPSPASEIHPLTFFNTCLDTSQKEAVLFALSQKELAIIHGPPGTGKTTTVVEIILQAVKQGLKVLCCAPSNIAVDNLVERLALCKQRILRLGHPARLLESIQQHSLDAVLARSDSAQIVADIRKDIDQVFVKNKKTQDKREKSNFRNEIKLLRKELKEREEAAMLESLTSANVVLATNTGASADGPLKLLPESYFDVVVIDECAQALEASCWIPLLKARKCILAGDHKQLPPTTVSHKAALAGLSLSLMERLAEEYGARVVRTLTVQYRMHQAIMRWASDTMYLGQLTAHSSVARHLLRDLPGVAATEETGVPLLLVDTAGCGLFELEEEDEQSKGNPGEVRLVSLHIQALVDAGVPARDIAVVSPYNLQVDLLRQSLVHRHPELEIKSVDGFQGREKEAVILSFVRSNRKGEVGFLAEDRRINVAVTRARRHVAVICDSRTVNNHAFLKTLVEYFTQHGEVRTAFEYLDDIVPENYSHENSQGSSHAATKPQGPATSTRTGSQRQEGGQEAAAPARQGRKKPAGKSLASEAPSQPSLNGGSPEGVESQDGVDHFRAMIVEFMASKKMQLEFPPSLNSHDRLRVHQIAEEHGLRHDSSGEGKRRFITVSKRAPRPRAALGPPAGTGGPAPLQPVPPTPAQTEQPPREQRGPDQPDLRTLHLERLQRVRSAQGQPASKEQQASGQQKLPEKKKKKAKGHPATDLPTEEDFEALVSAAVKADNTCGFAKCTAGVTTLGQFCQLCSRRYCLSHHLPEIHGCGERARAHARQRISREGVLYAGSGTKNGSLDPAKRAQLQRRLDKKLSELSNQRTSRRKERGT	0.7737	
-0.4911		WDR3 (protein, UniProt Q9UNX4 1-943, looked up) WD repeat-containing protein 3: MGLTKQYLRYVASAVFGVIGSQKGNIVFVTLRGEKGRYVAVPACEHVFIWDLRKGEKILILQGLKQEVTCLCPSPDGLHLAVGYEDGSIRIFSLLSGEGNVTFNGHKAAITTLKYDQLGGRLASGSKDTDIIVWDVINESGLYRLKGHKDAITQALFLREKNLLVTSGKDTMVKWWDLDTQHCFKTMVGHRTEVWGLVLLSEEKRLITGASDSELRVWDIAYLQEIEDPEEPDPKKIKGSSPGIQDTLEAEDGAFETDEAPEDRILSCRKAGSIMREGRDRVVNLAVDKTGRILACHGTDSVLELFCILSKKEIQKKMDKKMKKARKKAKLHSSKGEEEDPEVNVEMSLQDEIQRVTNIKTSAKIKSFDLIHSPHGELKAVFLLQNNLVELYSLNPSLPTPQPVRTSRITIGGHRSDVRTLSFSSDNIAVLSAAADSIKIWNRSTLQCIRTMTCEYALCSFFVPGDRQVVIGTKTGKLQLYDLASGNLLETIDAHDGALWSMSLSPDQRGFVTGGADKSVKFWDFELVKDENSTQKRLSVKQTRTLQLDEDVLCVSYSPNQKLLAVSLLDCTVKIFYVDTLKFFLSLYGHKLPVICMDISHDGALIATGSADRNVKIWGLDFGDCHKSLFAHDDSVMYLQFVPKSHLFFTAGKDHKIKQWDADKFEHIQTLEGHHQEIWCLAVSPSGDYVVSSSHDKSLRLWERTREPLILEEEREMEREAEYEESVAKEDQPAVPGETQGDSYFTGKKTIETVKAAERIMEAIELYREETAKMKEHKAICKAAGKEVPLPSNPILMAYGSISPSAYVLEIFKGIKSSELEESLLVLPFSYVPDILKLFNEFIQLGSDVELICRCLFFLLRIHFGQITSNQMLVPVIEKLRETTISKVSQVRDVIGFNMAGLDYLKRECEAKSEVMFFADATSHLEEKKRKRKKREKLILTLT	0.8072	
	1.673	TCF25 (protein, UniProt Q9BQ70 1-676, looked up) Ribosome quality control …: MSRRALRRLRGEQRGQEPLGPGALHFDLRDDDDAEEEGPKRELGVRRPGGAGKEGVRVNNRFELINIDDLEDDPVVNGERSGCALTDAVAPGNKGRGQRGNTESKTDGDDTETVPSEQSHASGKLRKKKKKQKNKKSSTGEASENGLEDIDRILERIEDSTGLNRPGPAPLSSRKHVLYVEHRHLNPDTELKRYFGARAILGEQRPRQRQRVYPKCTWLTTPKSTWPRYSKPGLSMRLLESKKGLSFFAFEHSEEYQQAQHKFLVAVESMEPNNIVVLLQTSPYHVDSLLQLSDACRFQEDQEMARDLVERALYSMECAFHPLFSLTSGACRLDYRRPENRSFYLALYKQMSFLEKRGCPRTALEYCKLILSLEPDEDPLCMLLLIDHLALRARNYEYLIRLFQEWEAHRNLSQLPNFAFSVPLAYFLLSQQTDLPECEQSSARQKASLLIQQALTMFPGVLLPLLESCSVRPDASVSSHRFFGPNAEISQPPALSQLVNLYLGRSHFLWKEPATMSWLEENVHEVLQAVDAGDPAVEACENRRKVLYQRAPRNIHRHVILSEIKEAVAALPPDVTTQSVMGFDPLPPSDTIYSYVRPERLSPISHGNTIALFFRSLLPNYTMEGERPEEGVAGGLNRNQGLNRLMLAVRDMMANFHLNDLEAPHEDDAEGEGEWD		-0.2721
